Test results published in patent US20050037449.

What was measured:
[1] = molecular target: human BMAL1 expressed in E. coli as an N-terminal GST fusion protein [GST: P08515]
[2] = molecular target: glutathion S-transferase (GST) [GST: P08515]
[3] = molecular target: T1, c-Jun (1-79) expressed in E. coli as an N-terminal GST fusion protein, P05412
T1 chain: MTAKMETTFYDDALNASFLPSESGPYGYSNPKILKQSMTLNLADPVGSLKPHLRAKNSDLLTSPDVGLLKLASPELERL

B1: active form of human JNK3 (JNK3 α1) expressed as an N-terminal His-tagged protein (protein)
chain: MSLHFLYYCSEPTLDVKIAFCQGFDKQVDVSYIAKHYNMSKSKVDNQFYSVEVGDSTFTVLKRYQNLKPIGSGAQGIVCAAYDAVLDRNVAIKKLSRPFQNQTHAKRAYRELVLMKCVNHKNIISLLNVFTPQKTLEEFQDVYLVMELMDANLCQVIQMELDHERMSYLLYQMLCGIKHLHSAGIIHRDLKPSNIVVKSDCTLKILDFGLARTAGTSFMMTPYVVTRYYRAPEVILGMGYKENVDIWSVGCIMGEMVRHKILFPGRDYIDQWNKVIEQLGTPCPEFMKKLQPTVRNYVENRPKYAGLTFPKLFPDSLFPADSEHNKLKASQARDLLSKMLVIDPAKRISVDDALQHPYINVWYDPAEVEAPPPQIYDKQLDEREHTIEEWKELIYKEVMNSEEKTKNGVVKGQPSPSAQVQQ
in vitro phosphorylation ([γ-32P]ATP kinase assay, SDS-PAGE, autoradiography) [1]: The phosphorylation of GST-BMAL1 was observed in this experimental system
in vitro phosphorylation with 0 ng, 14 ng, 28 ng and 70 ng of active JNK3 [1]: GST-BMAL1 was phosphorylated in a JNK3 dose-dependent manner
in vitro phosphorylation ([γ-32P]ATP kinase assay, SDS-PAGE, autoradiography) [2]: did not phosphorylate the GST
in vitro phosphorylation ([γ-32P]ATP kinase assay, SDS-PAGE, autoradiography) [3]: JNK3 did phosphorylate the GST-c-Jun (1-79) used as a positive control

B2: human JNK1 (Upstate Biotechnology) (protein)
chain: MSRSKRDNNFYSVEIGDSTFTVLKRYQNLKPIGSGAQGIVCAAYDAILERNVAIKKLSRPFQNQTHAKRAYRELVLMKCVNHKNIIGLLNVFTPQKSLEEFQDVYIVMELMDANLCQVIQMELDHERMSYLLYQMLCGIKHLHSAGIIHRDLKPSNIVVKSDCTLKILDFGLARTAGTSFMMTPYVVTRYYRAPEVILGMGYKENVDLWSVGCIMGEMVCHKILFPGRDYIDQWNKVIEQLGTPCPEFMKKLQPTVRTYVENRPKYAGYSFEKLFPDVLFPADSEHNKLKASQARDLLSKMLVIDASKRISVDEALQHPYINVWYDPSEAEAPPPKIPDKQLDEREHTIEEWKELIYKEVMDLEERTKNGVIRGQPSPLAQVQQ
in vitro phosphorylation, JNK1 added instead of JNK3 [1]: substantially not phosphorylated by any of JNK1 and JNK2 (which are members of the JNK family), and ERK2

B3: human JNK2 (Upstate Biotechnology) (protein)
chain: MSDSKCDSQFYSVQVADSTFTVLKRYQQLKPIGSGAQGIVCAAFDTVLGINVAVKKLSRPFQNQTHAKRAYRELVLLKCVNHKNIISLLNVFTPQKTLEEFQDVYLVMELMDANLCQVIHMELDHERMSYLLYQMLCGIKHLHSAGIIHRDLKPSNIVVKSDCTLKILDFGLARTACTNFMMTPYVVTRYYRAPEVILGMGYKENVDIWSVGCIMGELVKGCVIFQGTDHIDQWNKVIEQLGTPSAEFMKKLQPTVRNYVENRPKYPGIKFEELFPDWIFPSESERDKIKTSQARDLLSKMLVIDPDKRISVDEALRHPYITVWYDPAEAEAPPPQIYDAQLEEREHAIEEWKELIYKEVMDWEERSKNGVVKDQPSDAAVSSNATPSQSSSINDISSMSTEQTLASDTDSSLDASTGPLEGCR
in vitro phosphorylation, JNK2 added instead of JNK3 [1]: substantially not phosphorylated by any of JNK1 and JNK2 (which are members of the JNK family), and ERK2

B4: mouse ERK2 (New England Biolabs) (protein)
chain: MAAAAAAGPEMVRGQVFDVGPRYTNLSYIGEGAYGMVCSAYDNLNKVRVAIKKISPFEHQTYCQRTLREIKILLRFRHENIIGINDIIRAPTIEQMKDVYIVQDLMETDLYKLLKTQHLSNDHICYFLYQILRGLKYIHSANVLHRDLKPSNLLLNTTCDLKICDFGLARVADPDHDHTGFLTEYVATRWYRAPEIMLNSKGYTKSIDIWSVGCILAEMLSNRPIFPGKHYLDQLNHILGILGSPSQEDLNCIINLKARNYLLSLPHKNKVPWNRLFPNADSKALDLLDKMLTFNPHKRIEVEQALAHPYLEQYYDPSDEPIAEAPFKFDMELDDLPKEKLKELIFEETARFQPGYRS
in vitro phosphorylation, ERK2 added instead of JNK3 [1]: substantially not phosphorylated by any of JNK1 and JNK2 (which are members of the JNK family), and ERK2
